Data: the DeepSol protein solubility set

Test: soluble on expression in E. coli; label from the status in PepcDB or PDB records

Row | Sequence | soluble on expression in E. coli
1 | MESPIELAPDYYLENFFKLTHHAVTWYSDLLTEEEHAWLCSFDSLNKHAQCLLVRLYSRKGCWFRSDKLNYQEIPLIDAALAELGGQDFISLSPPLSHQEVAANLLTKPEISALYPELPKSLKKDALVERLSNTEFDRVEQLEFTIVRLNSAHMIDVLLTLFFANTHQDLSQFVLDDLGLHQFEQYQLSKVRRFFNSREQIDRLIELSQLANLYWQFDRKDKANLDLLIEAMPHPVHHPYVDRKREHMLNDIARDYERIDELETALSLFGQTQLTPSRERRARIYDKLNHDDLFSDIVTEMLHSPIDVSELEVAQKLEQRLKRKQGEKVPRVTKPTCMEYRVELDLSQQRVELASKAHFESLGWSVFYAENALLNALLGLTFWDAIFAPIEGAFINAYQHRPLDLYHSDFVAKRQALIDEAFAQLKLGNTQAILTKYDEKFGISNPFVQWSLIGKELLEQSLNTIPTRTLLELFKVQLSDLKLYRNGMPDLIAFRDNEFEWIEVKGPGDKLQDNQWRWIKEFSRLNVPFAVCYVTARKEDEKRVD | not soluble
2 | MESTAPNAPTEEAPEPTPFVFEFKNNHIKLIELHVYTDSMEILLIGNDGNRYEVEIQEYPGEACIEQISLNRVLVQKKECTSMYPSAPIAIVTLYSILRQPGVKVDCFYYRILNQYFVRDKNNKTEHAKWDERSASLTKMLKAMMRALMKKLEVEVFKIVYNGKEEEVMCLLPYFEPGYLRRICLFNPLYVSPTVIDNIITTEQWKQAKELNTMTGEPVAFPVESHAHFESLRIRIPELKQIDVILLVLKYLNQKTPKDNEIGVQNVSELFDFMWGSMGIPHENDPETIRYTWKSGTYNLYAEVTKNGVRFTSETRQA | not soluble
3 | MESTLSLQANLYPRLTPAGAFYAVSSDAPSAGKTLLHSLLKADADEMVSSEKLLTWADTADIDTALNLLYRLQKLEFLYGDENGHSDGINLSDEQLPLLMEQLSGSGKALLVDRNGLYLANANFHHEAAEELGLLAAEVAQMEKKYRLLIKNNLYINNNAWGVCDPSGQSELTFFPLYIGSTKFILVIGGIPDLGKEAFVTLVRILYRRYSNRV | not soluble
4 | METEEEIQNVNVHHGHNIRRTRIEKNIKQDALAALVNMTQPNVSKYEKMRVIEDEMLNRFARALNVPVEYLKTLEEDAPSVVFENITNNVHDNKDSSMGSTGYNNDSITNTFNPIDKITELYERLLKEKDEKYAALEKRIQGLEQQNNNGK | not soluble
5 | METIIHKIRLFDVAQADAFEFWVQNVDYATCPDLPSVVRFDVHRASLQANAPYHYVEVIKITDRAAFDADMETSTFAGLVQAFSRMAEVVEELAGEQLGSGYAAG | soluble
6 | METKSLICTACPRGCRLSVKIENENISVSGNKCPKGLSYGKTEAVCPMRILTSTIASSVEGFPRLPVKTSVEVPLKNFSEYMHLIRKLKADSSKMPGDIIVKNFAESGADLIAAGGSLLEHHHHHH | soluble
7 | METQENMIKTALQAAQKPFFEFAPNNTPLVFTPDQDGGWRYKSHPELMQNPYRKCGKFLMHDTASLIKFVQKHKQDGTQIYIDADFKSGRIDVTAVINGHTQQAPGWLDFYAVYTPQHTTSASNWLNNNAHRMNQMEFSHFLTNNARNIVSKNPGNENSVYPTAAEVLDFALNLEYTEKTTFKQGYREQDGRINFTFQSEDSGQTEKNLKMFERFGIEFTPHQGGASYFVEALLKFRIDKNSGALVLWYELQQIDAVIEQAAKDISEAVQKAFPEIDIYFGVIA | soluble
8 | METSMITELKSVRDIWKKMPSERHARIFLEEMIWPSGRHCPHCGSLSSTPIRGRTARPGLYQCAERECCLQFTVTTKTPMHATKLDLRIWIAAIFLMLTSSKGISSVVMARILGVNQKTAWKLGHAIRELMDEREAVSARLAGVVEVDEAYVGGAPKFKKGVKNKRGRGTGKPMVLVAADRTGQAKATLIPNAKGATLGPIMKEWIDPSSALMTDSNTAYRKIGRSFASHHTVNHGKRQHSRPSKGAHINTVEAVNSQVQRALIGVYHRLGRQHLQRYLDEILWQWNHRQQEVKIRNRKTSSGTKTIATRVWKPIPVVDQMRGLLCCAVGRQLRRTPQWGLCWPIHLFEHKGTFA | soluble
9 | METTQKDELSSFLSVLPPVDFCCVYGSTLHPNNQDKSKMVDYILGVSDPIKWHSANLKMNSDHYASWMVHLGGARLITNVADKVGVGVHFNPFVNWNDRKLKYGVVRMHDLVQDILDWKRFYLSGRLQKPVHMLVDNLDIEDVNSVNKRAAISAALLLLPSKFTEEDLYAKICSLSYMGDLRMFFAEDTNKVNKIVKGQFDLFQSMYKPFLEECETKNLLRFSSAEASHTKLVQDSSLSATRSLVSSLPASVRSQMGKSLGEKKFVSETGRVMGEVCISSREEAAKCMEKVMRRRVMVSSGRQAVSGFLAAGAINATMYLSQKMRKAWNSRA | soluble
